Source: the DeepSol protein solubility set

Test: soluble on expression in E. coli; label from the status in PepcDB or PDB records

| Sequence | soluble on expression in E. coli |
| --- | --- |
| SNAMLFCDDSKKYLKEQNINLKNEFDKDDKRVEKFSLKHQNIYFDYSKNLINDYILKSLLESAEKSSLKDKIKQMFNGAKINSTEHRAVLHTALRDLSSTPLIVDGQDIRQEVTKEKQRVKELVEKVVSGRWRGFSGKKITDIVNIGIGGSDLGPKMVVRALQPYHCTDLKVHFVSNVDADSLLQALHVVDPETTLLIIASKSFSTEETLLNSISAREWLLDHYEDEKAVANHFVAISSKLDKVKEFGIDLEHCYKMWDWVGGRYSLWSSIGMSIAFAIGYDNFEKLLAGAYSVDKHFKETEFSKNIPVIMALLASYYSCTYNSQSQALLPYDERLCYFVDYLQQADMESNGKSVNIAGETVNYQTGVVLWGGVGTNGQHAFHQLLHQGNIFIPVDFIAIATSHHNYDNHQQALLANCFAQSQALMFGQSYDMVYNELLKSGLNETQAKELAAHKVIPGNRPSTTILLDELSPYSLGALIALYEHKIFVQGVLWDINSYDQWGVELGKKLGKNILKAMNDDSSDEYQNLDDSTRQLIAKVKNK | soluble |
| MSLGRAGRGIDSAVGILLCGSEDRAIHKFFRESAFPAEAQIHEILNVLSVNDGLTLRGIEQRTNLRYGQIEKALKLLVAENPSPVVYTEKLWRRTIVSFSPDHERINHLMNQRKSELADVESYITTKECKMQFLRRALDEPGAEHCGKCSSCLQHPLLSPDIDSGLLHAANLFIKHADLSLNLNKQVAAGAFTQYGFKGNLPASLQGSTGRILSRWGYSGWGKQVAQEKKTGRFSDELVEACAEMVRQRWNPHPEPTWVCCVPSLKHLDLVPDFESTSTWFLILPGDWRRNLAYLLLMPLKKSWTIHRRKCSKTVSTSVKISTGREGHHHHHH | not soluble |
| GPGSMSHVKAFDPAAQARCDPYYKRNHMGHVVCTLCDVCCSDDNNFIKHLAGKTHSLQLERLERSANREKRLAEEEELNKEAMRRAEQEKATRELLLQQTSAPHASSVTSFAPFGRPEFHYCTEHDPELYQTKVWLEFYFPQAVEGARPLHRWRSAREQEVEKPPNDDVVYLLVACEGYMTVGLKFPSKLPRTSSGLTSWGGYGNAGSDEEKGRYRCSWDPVKKLYELFFIIG | soluble |
| MQDKYGVNHDHYCYESSDVLINLLNIRDPDELTQAEADFNLIRYSEYCSDLDELEDFDSNHFLNLHWVLFQDIYEWAGTIRDVDISKANTRFCTCSRVEPELNKAISRIPLIRFCRNKHELVALVADIFSDLNVVHPFREGNGRTTRFFFEELLHVAGYRIEWPVITKEEWVDANIHGYFGQLHKLEVIFDAAIIESLEHHHHHH | not soluble |
| MGSDKIHHHHHHMQNHVISLASAAERRAHITDTFGVRGIPFQFFDALMPSERLEQAMAELVPGLSAHPYLSGVEKACFMSHAVLWKQALDEGLPYIAVFEDDVLLGEGAEKFLAEDAWLQERFDPDSAFIVRLETMFMHVLTSPSGVADYCGRAFPLLESEHWGTAGYIISRKAMWFFLDRFAALPSEGLHPVDWMMFGNPDDRERMPVCQLNPALCAQELHYAKFHDQNSALGSLIEHDRCLNSKQQRRDSPANTFKHRLIRALTKISREREKRRQRREQLIGKIIVPFQ | not soluble |
| MGSDKIHHHHHHMRIVYRASETFKKVHASTALVKAIRGPIGSGKSVGCVLEMFRVAQQQEPNAQGVRKTRWACVRNTYPELKGTVIKTFQTWIPEQICPIKYDSPITGKMNINHPDGKTRIEAEFLFLSMDKPKDVKKLMSLELTGIWINEAQFLPVSLVTEAVTRTGRYPEKRVEEGFMGATWNGMIMDTNSPDDDHWWYQFEQGIDEETEQPLKPKGWEFFVQPGALIDITGMPLATLSDEIKRNIEQGHYDDYLGHRFVANPIAENVINHKKGHGYWFDNIQGQTLNWIKSRVCNEFATVQQGKPVFGDHFNKELHVSTEKLVPVKGWETFIGLDFGLTPAAIIGQIAPIGQLRIVDEIVATGMGIERFITEQLSPLLRSRYAECAIQIIGDPAGVQRAQTDERTCFQLLEEYGFNARPAESNNTTARLEAVRWWLSRLVGKGQPAMLISPHCKTLIKGYETGYAYRQLNVSGEEKYTETPDKNRYSHPHDANQYLCLGAMPSLFKEQVINIKTHQPLSNITGY | not soluble |
| MLSVRTPLATIADQQQLQLSPLKRLTLADKENTPPTLSSTRVLASKAARRIFQDSAELESKAPTNPSVEDEPLLRENPRRFVVFPIEYHDIWQMYKKAEASFWTAEEVDLSKDIQHWEALKPDERHFISHVLAFFAASDGIVNENLVERFSQEVQVTEARCFYGFQIAMENIHSEMYSLLIDTYIKDPKEREYLFNAIETMPCVKKKADWALRWIGDKEATYGERVVAFAAVEGIFFSGSFASIFWLKKRGLMPGLTFSNELISRDEGLHCDFACLMFKHLVHKPAEQRVREIITNAVRIEQEFLTEALPVKLIGMNCTLMKQYIEFVADRLMLELGFNKIFRVENPFDFMENISLEGKTNFFEKRVGEYQRMGVMSNSTENSFTLDADF | soluble |
| MSLTRSTRNSIEFKVWGRHALFTDPLTKVGGEKCSYHVPTYEALKGIAKSIYWKPTLIWVIDEVRVMKRVRTQTKGTKPLEFGGGNSLAIYTFLADVEYQVRAHFEWNEHRPELQADRIDGKHYAIARRMLERGGRQDIFLGTRDCQGYIEPCEFGGGAGAHDEGSELAFGLMFHGFDYPDETGDQKLHARFWRPVMRNGFIRFDRPEDCPVRKFVRSMSVKPFGFGQNLQSADEAAAELEGLAEGHHHHHH | soluble |
| MGSDKIHHHHHHVYYAHFGLKEPPFKITPNTDFFFRGGNRGAVLEALRYAILHGEGIVKVVGEVGSGKTMLCRMLQTQLPDHVDSVYLANPSMAPEDVLHAIALELHLDIPDRLSKLEVMQRLQQALLDKHEARRQVVVFVEEAQGMPLATLEEIRLLTNLETRHHKLLQIVLFGQPELDDNLNQRQIRQLKERITHSFYLGPLSRDEIAEYLMFRLRAAGYYGPPLFTKRAVKQLAKMAQGLVRRVNILADKSLLAAFAANADQVTPRHVAAAIRDSEFAGEIQRPVGRWSVLIGGLVLGVAGMALYAWSQGMLPLPVAPAPVTHAETEQRLEEAHSLENESGRGMSGVLPLLMQREEASLVWLDSTPPEYITIALMHDFPETDQEKEQQLLSANLVLDDVYALRTKVGEEDRVIILYGAYENRQQALEEFRSLPKALQMGAYLRTIAGIREELLQHQ | not soluble |
| MAFERQGKIEKKISYSLFLNGPNVHFGSILFGAVDKSKYAEELCTHPMRQAYNTLDSNSRIIITVQSVAILDGKLVW | not soluble |
| MWIEELANGKFKYIERYTDPLTNKYKKVSVTLDKNSSQAQKKAGLILQEKIEDRLAIRNHSEMTYGELKKEYLKQWIPTVKDSTKRGYLVSDSHIATVLPDDTIINKLTKRDIRLIIDKLLKHNSYHVTHKCRKRLHAIFSYAIQMDYMTSNPTENVLVPKPKDDYKPEKVLYLTSNEVYDLCNRMIDNDEQTLADIVLFMFLTGVRYGELSCLTYDKIDFENKEILINATYDFNTREITTTKTKKSTRKISVSDNILDIVNRQKKTSSFVFPNSNGVPILNAYINKRLKIYGDYHTHLFRHSHISFLAEKGIPLNAIMDRVGHSDPKTTLSIYSHTTVNMKEIINKQTAPFVPLLKSE | not soluble |
| DTETTGLPADETQFISGVDAPAPVSVGWQLLDFRFRCIEEVVCRLSTDEPVSPEAAALHGITDASLHGDDPHEVYARLLGAVSKAKVLSAHNLAFHRSVLVYDMRRRGFDPSPLFSLDDYCTMEAGVDFTHLYGSCGTWKLPRLTELFGVLYFGLPGVRTTYREKVRNDIRLVAACLHRMNPTTPSLE | not soluble |
| MSLRDKKGPVNKRVDFLSNKLNKYSIRKFTVGTASILIGSLMYLGTQQEAEAAENNIENPTTLKDNVQSKEVKIEEVTNKDTAPQGVEAKSEVTSNKDTIEHEASVKAEDISKKEDTPKEVANVAEVQPKSSVTHNAEAPKVRKARSVDEGSFDITRDSKNVVESTPITIQGKEHFEGYGSVDIQKNPTDLGVSEVTRFNVGNESNGLIGALQLKNKIDFSKDFNFKVRVANNHQSNTTGADGWGFLFSKGNAEEYLTNGGILGDKGLVNSGGFKIDTGYIYTSSMDKTEKQAGQGYRGYGAFVKNDSSGNSQMVGENIDKSKTNFLNYADNSTNTSDGKFHGQRLNDVILTYVASTGKMRAEYAGKTWETSITDLGLSKNQAYNFLITSSQRWGLNQGINANGWMRTDLKGSEFTFTPEAPKTITELEKKLKRFHSRKNVNLIRIEGHHHHHH | not soluble |
| DMRVVSVNPAARRLLDLPDDYIPIERPLEEVCAKIPFGPDELGEGESRTWRLPTAEVRRITRMRFFDRSFSRLFFSIETLTEELHSAEKEAYEKLIRLIAHEVNNSTAGIIGVLNAVGDAFDDTPHTPEGEVSEAIALCRDRCMAMSRFITRFAEVVKLPDPTLSSVDLVPLCERCILLMQPLAVETGVKMKMCKEQDSCLVRCDAEQIEQVVINLLRNAIESFAQQNDLAVSATKTVLLCLDRHNLLVEDNGQPISDDVATRLFTPFFSTKPNGQGIGLVVIREVLTRHGWSFSLTTDADGRTRFRMAWP | not soluble |
| MEESKTPHVAIIPSPGMGHLIPLVEFAKRLVHLHGLTVTFVIAGEGPPSKAQRTVLDSLPSSISSVFLPPVDLTDLSSSTRIESRISLTVTRSNPELRKVFDSFVEGGRLPTALVVDLFGTDAFDVAVEFHVPPYIFYPTTANVLSFFLHLPKLDETVSCEFRELTEPLMLPGCVPVAGKDFLDPAQDRKDDAYKWLLHNTKRYKEAEGILVNTFFELEPNAIKALQEPGLDKPPVYPVGPLVNIGKQEAKQTEESECLKWLDNQPLGSVLYVSFGSGGTLTCEQLNELALGLADSEQRFLWVIRSPSGIANSSYFDSHSQTDPLTFLPPGFLERTKKRGFVIPFWAPQAQVLAHPSTGGFLTHCGWNSTLESVVSGIPLIAWPLYAEQKMNAVLLSEDIRAALRPRAGDDGLVRREEVARVVKGLMEGEEGKGVRNKMKELKEAACRVLKDDGTSTKALSLVALKWKAHKKELEQNGNH | soluble |
| MGSDKIHHHHHHVSSPNIDIELDALKEAVSVALAHAKKLGSSAAEVAISKQQGLSVSTRTQEVETVEFNKDGALGITVYRGGCKGSSSTSDLSTDAIALAVKAADDIARYTSEDPFSGLADSALMAKNIRDLQLYYPQDIGAEELADLAIRAEKAGVDADTRIKYSDGATANAHTSAKVYANSHGFLQGYCSSRYSLSSVVIGEESDGNMQRDYDYTVSRKFADLLSPEEVGAKAAEKTLSRLDARKIATAKLPVLFAPEIATGLIGHLIGAISGGSLYRKSSFLLDSLHTHIFPDWFSIEEQPHILSGLASANYDSEGVATQDRRIIDRGQLETYLLTSYSARKLGMTNTGHAGGIYNWTLSHSNQTFADLIKAMNTGLIVTEVMGQGVNGVTGDYSRGAAGFYVENGVIQYPVEEITIAGNLKDMFIGIQGVAMDRDLRSSIRTGGILLSEMKIAGN | not soluble |
| MTTKNTLQPTEAAYIAGFLDGDGSIYAKLIPRPDYKDIKYQVSLAISFIQRKDKFPYLQDIYDQLGKRGNLRKDRGDGIADYTIIGSTHLSIILPDLVPYLRIKKKQANRILHIINLYPQAQKNPSKFLDLVKIVDDVQNLNKRADELKSTNYDRLLEEFLKAGKIESSPTGSGSGSKHPTLTLPTTTSQENLPNGSGSGSGTMTTKNTLQPTEAAYIAGFLDGDGSIYAKLIPRPDYKDIKYQVSLAISFIQRKDKFPYLQDIYDQLGKRGNLRKDRGDGIADYTIIGSTHLSIILPDLVPYLRIKKKQANRILHIINLYPQAQKNPSKFLDLVKIVDDVQNLNKRADELKSTNYDRLLEEFLKAGKIESSP | soluble |
| MKKLFALLFISMISGMIMAQIPEVSGTIVFKKDGQPVVGALVSVLGTDISTITDVDGRFTLKEIPEKAQRIRVKYIGMQPKDVKIRPIMNVTLDLEKKLAFFIQAGVGVSGYNLENNNEDIYGGNNHLYIQGGVGLNYNFSTYFSLQPSVNVVAKGCKNMGRRGSDGQGEITVDPVYLEIPVLIAARFIISDFGRLIFNAGPYAAIGIAGKGKYTDEWEGTSMKFDLFSGDEAVLKRFDAGVQAGFAYEIKHIGFSYTFGYGLLKPFKEWNKEWGATPHNISHNFGLKYIF | not soluble |
